This data set can be described thus: yeast display, Sf9 membrane polyspecificity reagent, FACS + sequencing; frameworks hold sequencing errors. The gist of the method:
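Polyreactivity labels are assigned by the sorting gate from which each nanobody was recovered. The gates were low and high (top ~1%), set on anti-HA fluorescence for expression and streptavidin fluorescence for reagent binding. Before sorting, galactose-induced (36–48 hours) yeast display cells were stained for 1 hour at 4 °C with 10% biotinylated, detergent-solubilized Sf9 membrane reagent.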
As to “QVQLVESGGGLVQAGGSLRLSCAASGYIFGAYAMGWYRQAPGKERELVAGITASGDSTYYADSVKGRFTISRDNAKNTVYLQMNSLKPEDTAVYYCNAQPDIGLYDRQWKEPYEYWGQGTQVTVSS”, the “polyreactivity (PSR sort gate)” value was “low polyreactivity”.

In the case of “QVQLVESGGGLVQAGGSLRLSCAASGYIFGGYAMGWYRQAPGKERELVAAISRSGGSTYYADSVKGRFTISRDNAKNTVYLQMNSLKPEDTAVYYCAVRGYTLRYGYWGQGTQVTVSS”, the “polyreactivity (PSR sort gate)” value is given as “high polyreactivity”.

Consider “QVQLVESGGGLVQAGGSLRLSCAASGYIFGNYAMGCYRQAPGKERELVAAISKSGVTTYYADSVKGRFTISRDNAKNTVYLQMNSLKPEDTAVYYCNARSWRPINARYNEYDYWGQGTQVTVSS”, for which the “polyreactivity (PSR sort gate)” value was “low polyreactivity”.

Consider “QVQLVESGGGLVQAGGSLRLSCAASGYIFGRNAMGWYRQAPGKEREFFAAISSSGSSTYYADSVKGRFTISRDKAKNTVYLQMNSLKPEDTAVYYCNADRLRSTHDYWGQGTQVTVSS”, for which the “polyreactivity (PSR sort gate)” value is “high polyreactivity”.

With “QVQLVESGGGLVQAGGSLRLSCAASGYIFGRYAMGWYRQAPGKERELVAAISSTGDSTYYADSVKGRFTISRDNAKNTVYLQMNSLKPEDTAVYYCNAVVRRYSYGRYYYWGQGTQVTVSS”, the “polyreactivity (PSR sort gate)” value is “high polyreactivity”.

For the sequence “QVQLVESGGGLVQAGGSLRLSCAASGYIFGYNAMGWYRQAPGKERELVAAINYSGTRTYYADSVKGRFTISRDNAKNTVYLQKNSLKPEDTAVYYCNAVGQLQYVSSDDYWGQGTQVTVSS”, the “polyreactivity (PSR sort gate)” value was “high polyreactivity”.

“QVQLVESGGGLVQAGGSLRLSCAASGYIFGYNTMGWYRQAPGKERELVATINWRGSRTYYADSVKARFTISLDNAKNTVYLQMNSLKPEDTAVYYCNADHQFRSSVSGDHDYWGQGTQVTVSS”: the “polyreactivity (PSR sort gate)” value is reported as “high polyreactivity”.

Turning to “QVQLVESGGGLVQAGGSLRLSCAASGYIFIGYAMGWYRQAPGTERELVATITSGGSTNYADSVKGRFTISRDNAKNTVYLQMNSLNPEETAVYNCAAGRGRYCYSWRYLYAIFDYWGQGTQVTVSS”, the “polyreactivity (PSR sort gate)” value is “low polyreactivity”.

“QVQLVESGGGLVQAGGSLRLSCAASGYIFIVNAMGSYRQAPGKERELVAAITDRGGSTYYADSVKGRFTISRDNAKNTVYLQMNSLKPEVTAVYYCAAELVHRLWYRDVHFDYWGQGTQVTVSS”: the “polyreactivity (PSR sort gate)” value is given as “low polyreactivity”.

In the case of “QVQLVESGGGLVQAGGSLRLSCAASGYIFKHYAMGWYIQAPGKERELVAAITSGGRTNYADSVKGRFTISRDNAKNTVFLQMNSLIPEDTAVYYCAARRYRYFDGTVPLDYWGQGTLVTVSS”, the “polyreactivity (PSR sort gate)” value is given as “high polyreactivity”.

For “QVQLVESGGGLVQAGGSLRLSCAASGYIFKNYAMGWYRQAPGKERELVAAITRRGASTYYADSVKGRFTISRDNAKNTVYLQMNSLKPEDTAVYYCAAYPWPPGEYDYWGQGTQVTVSS”, the “polyreactivity (PSR sort gate)” value is recorded as “low polyreactivity”.

As to “QVQLVESGGGLVQAGGSLRLSCAASGYIFKVNSMGWYRQAPGKERELVADISRNSGSTRYADSVKGRFTISRDNAKNTVYLQMNSLKPDDTAVYYFAADGRYWVKPGSPWDRSRYDYWGQGTQVTVSS”, the “polyreactivity (PSR sort gate)” value is listed as “low polyreactivity”.

Turning to “QVQLVESGGGLVQAGGSLRLSCAASGYIFKYNAMGWYRQAPGKERELVAAISSGGSTYYADSVKGRFTISRDNAKNTVYLQMNSLKPEDTAVYYCAARGVRSARIYYYWGQGTQVTVSS”, the “polyreactivity (PSR sort gate)” value is “high polyreactivity”.

For the sequence “QVQLVESGGGLVQAGGSLRLSCAASGYIFKYYAMGWYRQAPGKERELVTAIRSNDDSTYYADSVKGRFTISRDTAKNTVYLQMNSLKPEDTAVYYCAAATYGTRLRRYYYWGQGTQVTVSS”, the “polyreactivity (PSR sort gate)” value is given as “high polyreactivity”.

With “QVQLVESGGGLVQAGGSLRLSCAASGYIFLAYAKGWYRQAPGKERELVADNTYADSVKGRFTISRDNAKNTVYLKMNSMKPEDTAVYYCNADEVYDEYSYDYWGHGTQVTVSS”, the “polyreactivity (PSR sort gate)” value is reported as “low polyreactivity”.

For “QVQLVESGGGLVQAGGSLRLSCAASGYIFLGYDMVWYRQAPGKERELVAVINWSGGRTRYADSVKGRFTISRDNAKNTVYLQMNSLKPEDTAVYYCAAERSITYDYWGQGSQVTVSS”, the “polyreactivity (PSR sort gate)” value is recorded as “high polyreactivity”.

Values taken from the nanobody polyreactivity screen of Harvey et al. (2022).
